# According to article PMC4186968, “Molecular Basis for Coordinating Transcription Termination with Noncoding RNA Degradation” (Molecular Cell, 2014):
# Where a SMILES comes first, the peptide text is derived from it. Where no end group is shown, it is not given here.
# B1: Nrd1p CID (residues 1-153) (domain or fragment)
# chain: MQQDDDFQNFVATLESFKDLKSGISGSRIKKLTTYALDHIDIESKIISLIIDYSRLCPDSHKLGSLYIIDSIGRAYLDETRSNSNSSSNKPGTCAHAINTLGEVIQELLSDAIAKSNQDHKEKIRMLLDIWDRSGLFQKSYLNAIRSKCFAMD
# Experiments:
# [1] = target: Nrd1p CID (residues 1-153) (UniProt P53617); assay: fluorescence anisotropy (FA) equilibrium binding
# Nrd1p CID = target: T1, Nrd1p CID (Saccharomyces cerevisiae, UniProt P53617); assay: Equilibrium binding of FAM-labelled peptides to Nrd1p CID by fluorescence anisotropy (FA); design: species or system S. cerevisiae
# T1 construct: the CID (residues 1–153) of Nrd1p; His6 (C); made in house
# T1 sequence (P53617 1-153): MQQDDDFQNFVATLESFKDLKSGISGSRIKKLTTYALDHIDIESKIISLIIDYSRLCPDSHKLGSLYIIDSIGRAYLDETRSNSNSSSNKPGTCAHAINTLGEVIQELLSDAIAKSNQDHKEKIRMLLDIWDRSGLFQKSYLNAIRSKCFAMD
# [2] = target: T2, Nrd1p CID (residues 1-153), P53617; assay: fluorescence anisotropy (FA) equilibrium binding; details: chain shown with the change
# T2 chain: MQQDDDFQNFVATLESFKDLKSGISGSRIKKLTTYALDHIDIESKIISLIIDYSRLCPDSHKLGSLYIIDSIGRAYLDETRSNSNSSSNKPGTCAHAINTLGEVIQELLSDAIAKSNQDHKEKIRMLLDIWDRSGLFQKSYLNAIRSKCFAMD
# [3] = target: T3, FAM-labeled Trf4p NIM peptide; assay: fluorescence anisotropy (FA) equilibrium binding; details: chain shown with the change
# T3 chain: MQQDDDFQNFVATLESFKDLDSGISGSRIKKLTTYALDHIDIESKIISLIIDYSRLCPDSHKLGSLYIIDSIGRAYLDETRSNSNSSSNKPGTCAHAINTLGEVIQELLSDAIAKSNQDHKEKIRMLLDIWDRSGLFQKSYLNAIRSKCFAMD
# [4] = target: B1; assay: FP
# [5] = target: T4, Nrd1p CID (residues 1-153) (S. cerevisiae, UniProt P53617 1-153); assay: NMR solution structure; reconstituted complex of 15N,13C-labeled Nrd1p CID and unlabeled NIM peptide; 50 mM sodium phosphate pH 8.0, 100 mM NaCl, 20°C; details: both partners purified
# T4 construct: also called Nrd1 CID
# T4 sequence (looked up): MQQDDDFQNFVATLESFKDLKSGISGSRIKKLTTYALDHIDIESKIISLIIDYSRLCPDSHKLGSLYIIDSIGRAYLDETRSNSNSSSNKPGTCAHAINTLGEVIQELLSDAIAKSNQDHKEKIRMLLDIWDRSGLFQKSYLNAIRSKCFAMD
# [6] = target: T5, FAM-labeled Trf4p NIM peptide; assay: fluorescence anisotropy (FA) equilibrium binding; details: chain shown with the change
# T5 chain: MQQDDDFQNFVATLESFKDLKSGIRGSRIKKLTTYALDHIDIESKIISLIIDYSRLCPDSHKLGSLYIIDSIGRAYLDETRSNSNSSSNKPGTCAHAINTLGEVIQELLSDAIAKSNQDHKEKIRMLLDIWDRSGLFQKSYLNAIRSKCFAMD
# [7] = target: T6, FAM-labeled Trf4p NIM peptide; assay: fluorescence anisotropy (FA) equilibrium binding; details: chain shown with the change
# T6 chain: DDDEDGYNPYTL
# [8] = target: FAM-labeled Trf4p NIM peptide (S. cerevisiae); assay: fluorescence polarisation; fluorescence anisotropy; fluorescently labeled peptide titrated with Nrd1p CID; equilibrium binding in solution
# [9] = target: FAM-labeled Ser5P CTD peptide (S. cerevisiae); assay: as above
# NIM N580A = target: T7, NIM N580A (Saccharomyces cerevisiae, not fully specified (N-terminus); also: FAM label (position not given here)); assay: FP
# T7 chain: DDDEDGYAPYTL
# NIM D577R = target: T8, NIM D577R (Saccharomyces cerevisiae, not fully specified (N-terminus); also: FAM label (position not given here)); assay: FP
# T8 chain: DDDERGYNPYTL
# [10] = target: FAM-labeled Ser5P CTD peptide (S. cerevisiae); assay: fluorescence polarisation; fluorescence anisotropy competition; preformed complex of 10 nM FAM-labeled Ser5P CTD and Nrd1p CID (120 μM) titrated with unlabeled Trf4p NIM peptide; KD calculated using 1.08 μM for CID-NIM
molecule,measurement,setting,value
FAM-labeled Trf4p NIM peptide Y579A,Kd,[1],283 µM
CC(C)C[C@H](NC(=O)[C@@H](NC(=O)[C@H](Cc1ccc(O)cc1)NC(=O)[C@@H]1CCCN1C(=O)[C@H](C)NC(=O)[C@H](Cc1ccc(O)cc1)NC(=O)CNC(=O)[C@H](CC(=O)O)NC(=O)[C@H](CCC(=O)O)NC(=O)[C@H](CC(=O)O)NC(=O)[C@H](CC(=O)O)NC(=O)[C@H](CC(=O)O)NC(=O)c1ccc2c(c1)C(=O)OC21c2ccc(O)cc2Oc2cc(O)ccc21)[C@@H](C)O)C(=O)O [N580A] (HELM PEPTIDE1{[O=C1OC2(c3ccc(O)cc3Oc3cc(O)ccc32)c2ccc(C(=O)[*:2])cc21].D.D.D.E.D.G.Y.A.P.Y.T.L}$$$$V2.0),Kd,Nrd1p CID,4.3 ± 0.1 µM
CC(C)C[C@H](NC(=O)[C@@H](NC(=O)[C@H](Cc1ccc(O)cc1)NC(=O)[C@@H]1CCCN1C(=O)[C@H](CC(N)=O)NC(=O)[C@H](Cc1ccc(O)cc1)NC(=O)CNC(=O)[C@H](CCCNC(=N)N)NC(=O)[C@H](CCC(=O)O)NC(=O)[C@H](CC(=O)O)NC(=O)[C@H](CC(=O)O)NC(=O)[C@H](CC(=O)O)NC(=O)c1ccc2c(c1)C(=O)OC21c2ccc(O)cc2Oc2cc(O)ccc21)[C@@H](C)O)C(=O)O [D577R] (HELM PEPTIDE1{[O=C1OC2(c3ccc(O)cc3Oc3cc(O)ccc32)c2ccc(C(=O)[*:2])cc21].D.D.D.E.R.G.Y.N.P.Y.T.L}$$$$V2.0),Kd,Nrd1p CID,24.2 ± 0.6 µM
CC(C)C[C@H](NC(=O)[C@@H](NC(=O)[C@H](Cc1ccc(O)cc1)NC(=O)[C@@H]1CCCN1C(=O)[C@H](CC(N)=O)NC(=O)[C@H](Cc1ccc(O)cc1)NC(=O)CNC(=O)[C@H](CC(=O)O)NC(=O)[C@H](CCC(=O)O)NC(=O)[C@H](CC(=O)O)NC(=O)[C@H](CC(=O)O)NC(=O)[C@H](CC(=O)O)NC(=O)c1ccc2c(c1)C(=O)OC21c2ccc(O)cc2Oc2cc(O)ccc21)[C@@H](C)O)C(=O)O [Trf4p NIM] (HELM PEPTIDE1{[O=C1OC2(c3ccc(O)cc3Oc3cc(O)ccc32)c2ccc(C(=O)[*:2])cc21].D.D.D.E.D.G.Y.N.P.Y.T.L}$$$$V2.0; C-terminus assumed),Kd,Nrd1p CID,1.09 ± 0.01 µM
CC(C)C[C@H](NC(=O)[C@@H](NC(=O)[C@H](Cc1ccc(O)cc1)NC(=O)[C@@H]1CCCN1C(=O)[C@H](CC(N)=O)NC(=O)[C@H](Cc1ccc(O)cc1)NC(=O)CNC(=O)[C@H](CC(=O)O)NC(=O)[C@H](CCC(=O)O)NC(=O)[C@H](CCCNC(=N)N)NC(=O)[C@H](CC(=O)O)NC(=O)[C@H](CC(=O)O)NC(=O)c1ccc2c(c1)C(=O)OC21c2ccc(O)cc2Oc2cc(O)ccc21)[C@@H](C)O)C(=O)O [D575R] (HELM PEPTIDE1{[O=C1OC2(c3ccc(O)cc3Oc3cc(O)ccc32)c2ccc(C(=O)[*:2])cc21].D.D.R.E.D.G.Y.N.P.Y.T.L}$$$$V2.0),Kd,Nrd1p CID,7.7 ± 0.2 µM
DDDRDGYNPYTL [FAM-labeled Trf4p NIM peptide E576R],Kd,[2],4.8 µM
"DDDEDGYNPYTL [Nrd1p CID (residues 1-153), P53617 K21D]",Kd,[3],35.4 µM
DDDEDGANPYTL (not fully specified (N-terminus); also: FAM label (position not given here)) [Trf4p NIM peptide with alanine at Tyr579],Kd,[4],263 µM
DDDEDGYNPYTL (printed in three-letter code; also called Trf4p NIM; unlabeled NIM) [12 aa NIM peptide of Trf4p],binding result,[5],binds
DDDADGYNPYTL [FAM-labeled Trf4p NIM peptide E576A],Kd,[2],3.2 µM
"DDDEDGYNPYTL [Nrd1p CID (residues 1-153), P53617 S25R]",Kd,[6],146 µM
DDDRDGYNPYTL [Trf4p NIM peptide with Glu576 changed to arginine],Kd,[4],4.6 µM
"Nrd1p CID (residues 1-153), P53617 L20D (protein) MQQDDDFQNFVATLESFKDDKSGISGSRIKKLTTYALDHIDIESKIISLIIDYSRLCPDSHKLGSLYIIDSIGRAYLDETRSNSNSSSNKPGTCAHAINTLGEVIQELLSDAIAKSNQDHKEKIRMLLDIWDRSGLFQKSYLNAIRSKCFAMD",Kd,[7],44.9 µM
"Nrd1p CID (residues 1-153), P53617 I130K (protein) MQQDDDFQNFVATLESFKDLKSGISGSRIKKLTTYALDHIDIESKIISLIIDYSRLCPDSHKLGSLYIIDSIGRAYLDETRSNSNSSSNKPGTCAHAINTLGEVIQELLSDAIAKSNQDHKEKIRMLLDKWDRSGLFQKSYLNAIRSKCFAMD",Kd,[7],20.7 µM
Nrd1p CID Ile130Lys (domain or fragment) MQQDDDFQNFVATLESFKDLKSGISGSRIKKLTTYALDHIDIESKIISLIIDYSRLCPDSHKLGSLYIIDSIGRAYLDETRSNSNSSSNKPGTCAHAINTLGEVIQELLSDAIAKSNQDHKEKIRMLLDKWDRSGLFQKSYLNAIRSKCFAMD,fold decrease in binding affinity against wild-type Nrd1p CID,[8],20 fold
"Nrd1p CID (residues 1-153), P53617 D70A (protein) MQQDDDFQNFVATLESFKDLKSGISGSRIKKLTTYALDHIDIESKIISLIIDYSRLCPDSHKLGSLYIIASIGRAYLDETRSNSNSSSNKPGTCAHAINTLGEVIQELLSDAIAKSNQDHKEKIRMLLDIWDRSGLFQKSYLNAIRSKCFAMD",Kd,[7],39.8 µM
"Nrd1p CID (residues 1-153), P53617 R28D (protein) MQQDDDFQNFVATLESFKDLKSGISGSDIKKLTTYALDHIDIESKIISLIIDYSRLCPDSHKLGSLYIIDSIGRAYLDETRSNSNSSSNKPGTCAHAINTLGEVIQELLSDAIAKSNQDHKEKIRMLLDIWDRSGLFQKSYLNAIRSKCFAMD",Kd,[7],96.9 µM
B1,Kd,[9],130 µM
same,Kd,[8],1.08 µM
same,Kd,NIM N580A,4.3 µM
same,Kd,NIM D577R,24.2 µM
same,Kd,[10],120 µM
